Experimental data taken from patent US20110293603A1 (Ablynx, published 2011).

T1: extracellular part of recombinant human SR-A1 fused to polyhistidine tag (R&D Systems Cat No 2708-MS) (human, UniProt P21757 77-451)
T1 construct: range 77-451; Bought protein; that entry was therefore not used; also called rhSRA-1
T1 sequence: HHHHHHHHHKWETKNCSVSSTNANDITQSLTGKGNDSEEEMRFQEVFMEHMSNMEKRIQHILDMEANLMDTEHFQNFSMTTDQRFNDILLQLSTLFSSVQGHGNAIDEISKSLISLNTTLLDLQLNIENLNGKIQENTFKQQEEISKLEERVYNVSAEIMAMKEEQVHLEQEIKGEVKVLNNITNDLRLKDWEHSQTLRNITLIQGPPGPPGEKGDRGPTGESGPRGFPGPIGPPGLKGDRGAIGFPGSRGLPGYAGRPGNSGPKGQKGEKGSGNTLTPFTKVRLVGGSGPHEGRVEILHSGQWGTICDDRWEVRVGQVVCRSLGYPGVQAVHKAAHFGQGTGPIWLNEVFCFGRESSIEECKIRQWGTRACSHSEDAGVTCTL

B1: Nanobody 99D3 (VHH)
VHH: EVQLVESGGGLVQPGGSLRLSCAASGFTLGNYAIGWFRQAPGKEREGVSCVDRDGGSTYYLDSVTGRFTTSRDDAENTVYLQMNSLIPDDTAVYYCATRLYGCSGYGRDYADWGQGTQVTVSS
notes: Myc-tagged (detected with anti-Myc 9E10)
B2: Nanobody 98D8 (VHH)
VHH: EVQLVESGGGLVQPGGSLRLSCAASGSIFTINAMAWYRQAPGKQRELVAHLTNSGRTGYADSVKGRFTISSDNAKNTVYLQMNSLKPEDTAVYYCNRLGLHWSWGQGTQVTVSS
notes: as for B1
B3: Nanobody 98B9 (VHH)
VHH: EVQLVESGGGLVQAGGSLRLSCAASIGTFSAYHMGWFRQAPGKERELVAAISWSVSSTYYADSVKGRFTISRDNAKRTVSLQMDSLKPEDTAVYYCAARSGERYDYYKAQYEYWGQGTQVTVSS
notes: as for B1
B4: Nanobody 98E9 (VHH)
VHH: EVQLVESGGGLVQPGGSLRLSCAAYGSFFSIGTMGWYRQPPGNQRELVAVTYGLGSTNYAESVKGRFTISRDNAKNTVSLQMNSLKPEDTAVYYCYAEIDTDPRSGEWDYWGQGTQVTVSS
notes: as for B1
B5: Nanobody 98A10 (VHH)
VHH: EVQLVESGGGLVQPGGSLRLSCLPSTSTSSLRTVGWYRQGPGKQRDLVAIMSAGTTRYADSVKGRFTISLDDAKNTVYLQMNSLKPEDTAVYICNGRPVFSNVDYWGQGTQVTVSS
notes: as for B1
B6: Nanobody 98F12 (VHH)
VHH: EVQLVESGGGLVQAGGSLRLSCAASGFTFDDYAIGWFRQAPGKEREGVSCVSRDGGSTYYLDSVKGRFTISSDNAKNTVYLQMNSLKPEDAAVYYCAASRYDCSKYLIDYNYRGQGTQVTVSS
notes: as for B1
B7: Nanobody 105F7 (VHH)
VHH: EVQLVESGGGLVQAGGSLRLSCAASGRTFSNYAMGWFRQAPGKEREFVAAITWSGSSTYYADSVKGRFTISRDNAKNTVYLQMNSLKPEDTAVYYCAAAQRGRYYYLDRNVEYDYWGQGTQVTVSS
notes: as for B1
B8: Nanobody 105A8 (VHH)
VHH: EVQLVESGGNLVQAGGSLRLSCAASGFTFDDYVIGWFRQAPGKEREGVSCISSVEGSTYYADSVKGRFTISGDNAKNTVYLQMNSLKPEDTAVYYCAAGTWLDCSGYGSYDMDYWGKGTLVTVSS
notes: as for B1
B9: Nanobody 105B8 (VHH)
VHH: EVQLVESGGGLVQAGGSLRLSCAASGFTFDDYVIGWFRQAPGKEREGVSCISSSEGSTYYAESVKGRFTISSDNAKNTVYLQMNSLKPEDTAVYYCAASTWLDFVHGNEYDYRGQGTQVTVSS
notes: as for B1
B10: Nanobody 99C9 (VHH)
VHH: EVQLVESGGGLVQVGGSLRLSCAASGISIRTHAMGWYRQAPGKQRELVATITSVTSGGSLNYADSVKGRFTISRDNAKNTVYLQMNSLKPEDTAVYYCKLLGFDYRGQGTQVTVSS
notes: as for B1
B11: Nanobody 105G11 (VHH)
VHH: EVQLVESGGGLVQAGGSLRLSCAASGRTFSRYAMAWFRHAPGKDREFVAAVSQSGLLTFYADSVKGRFTISRDNAKNTVYLQMNSLKPEDTAVYDCAADSRFPLVVPVAYENWGQGTQVTVSS
notes: as for B1
B12: Nanobody 99C8 (VHH)
VHH: EVQLVESGGGLVQPGGSLRLSCAASGSIGRFVAMGWYRQAPGKQRELVATITSITSGGRTNYADSVKGRFTISRDNAKNTVYLQMNSLKPEDTAVYYCNVVPYVNDYWGQGTQVTVSS
notes: Myc-tagged (detected with anti-Myc 9E10); also called 99C8 α SR-A1
B13: Nanobody 49C5 (negative control, irrelevant nanobody against alphaFcgRI) (VHH)
VHH: EVQLVESGGGLVQAGGSLGLSCVASGRTFVSGGMGWFRQAPGKEREFVASIVWIGGRTYYADSVKGRFTISGDNAKSTVTLQMNSLKPEDTATYYCADGDLATGTYDYWGQGTQVTVSS
notes: Negative control; generation published in WO2008/074867; Myc-tagged (detected with 9E10)

Assays:
[1] = biological target: T2, extracellular part of recombinant human RAGE fused to human Fc (R&D Systems Cat No 1145-RG) (human, UniProt Q15109 23-342); assay: immunoprecipitation on Talon beads, SDS-PAGE and blot with mouse anti-RAGE and mouse anti-myc
T2 construct: extracellular domain; Bought protein; they look like the limits of the IgG1 Fc part; also called rhRG; 1145-RAGE; not shown: human Fc region of human IgG1, at the C-terminus
T2 sequence (Q15109 23-342): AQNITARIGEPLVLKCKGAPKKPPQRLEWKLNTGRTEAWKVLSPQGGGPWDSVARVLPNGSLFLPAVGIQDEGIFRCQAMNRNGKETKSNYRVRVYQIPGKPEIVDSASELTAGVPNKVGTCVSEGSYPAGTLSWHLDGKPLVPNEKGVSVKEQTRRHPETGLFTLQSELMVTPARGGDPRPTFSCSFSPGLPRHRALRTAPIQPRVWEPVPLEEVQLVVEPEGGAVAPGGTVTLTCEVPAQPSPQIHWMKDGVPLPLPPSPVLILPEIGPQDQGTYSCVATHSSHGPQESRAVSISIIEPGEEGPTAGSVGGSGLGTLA
Procedure: In order to test the binding of anti-RAGE clones further an Immunoprecipitation experiment was performed. In short, 100 ul of Talon slurry (50 ul beads) was washed carefully with lysis buffer (RIPA without EDTA) (20 mM tris pH7.4; 150 mM NaCl; 0.5% TritonX100; 0.1% SDS). 10 ug of VHHs was added to the beads in 200 ul of lysis buffer and incubate for 30 min hoh. The beads were washed once with lysis buffer and 1 ug of rhRG was added to the beads (100 ul) and incubated for 1 hour. The beads were spinned down and supernatant was removed. The beads were washed twice. Subsequently the beads were boiled for 5 min in sample buffer and the proteins were separated on a SDS PAGE by gel electrophoresis (FIG. 1).
The high molecular weight part was detected with mouse-anti-RAGE antibody (R&D systems) and the lower part was detected with mouse anti-myc.

[2] = biological target: T3, extracellular part of recombinant human Lox-1 fused to polyhistidine tag (R&D Systems, cat nr. 1798-LX) (human, UniProt P78380 61-273); assay: ELISA, rhLox-1 coated at 2 ug/ml, nanobody 1-1000 nM, detection with anti-Myc 9E10
[3] = biological target: T1, extracellular part of recombinant human …; assay: ELISA, rhSRA-1 coated at 2 ug/ml, nanobody 1-1000 nM, detection with anti-Myc 9E10
[4] = biological target: T3, extracellular part of recombinant human …; assay: ELISA, rhLox-1 coated at 2 ug/ml, nanobody detected with anti-Myc 9E10
[5] = biological target: T1, extracellular part of recombinant human …; assay: ELISA, rhSRA-1 coated at 2 ug/ml, nanobody detected with anti-Myc 9E10

Row | Binder | binding result [2] | further results
1 | B1 |  | binding result [1]: no binding
2 | B2 | binds | 
3 | B3 | binds | 
4 | B4 | binds | 
5 | B5 | binds | 
6 | B6 | binds | 
7 | B7 | binds | 
8 | B8 | binds | 
9 | B9 | binds | 
10 | B10 |  | binding result [3]: binds
11 | B11 |  | binding result [3]: binds
12 | B12 |  | binding result [3]: binds
13 | B13 |  | binding result [4]: no binding (tested: 1-1000 nM); binding result [5]: no binding (tested: 1-1000 nM)
